Assay results reported in patent US20020150536, “Nucleic acid ligands to integrins” (GILEAD SCIENCES, INC., published 2002).

Target: integrin alphaV beta3 (Homo sapiens, UniProt P06756;P06756;P05106 P06756:31-889,P06756:891-1048,P05106:27-788)
Experiment: microtiter plate, streptavidin-AP; Mg2+, Ca2+, Mn2+, pH 7.5, 37 C
Conditions: label: 5'-biotin
Method: The affinity of individual RNAs and RNA pools for αᵥβ₃ was determined by titration of biotinylated RNA with a small quantity of immobilized integrin. Bound RNA was detected through the biotin moiety. Biotinylated RNA was prepared according to standard transcription protocols, but including a 5-fold molar excess of a 5′-biotin-modified GMP over GTP in the reaction mixture. Methods for synthesizing 5′-biotin-modified guanosine nucleotides are described in WO 98/30720 entitled “Bioconjugation of Oligonucleotides,” specifically incorporated herein by reference in its entirety. The modified nucleotide is incorporated at the 5′ end of the transcript in proportion to its representation in the guanosine pool. 96-well microtiter plates (Immulon 2, Dynatech Laboratories, Inc., Chantilly, Va.) were coated overnight at 4° C. with 100 μL purified αᵥβ₃ at a concentration of 0.25 μg/mL in 20 mM TrisHCl, pH 7.5, 150 mM NaCl, 1 mM MgCl₂, 2 mM CaCl₂, 0.1 mM MnCl₂. Coating concentrations were 0.8 μg/mL for αIIbβ₃ and 0.3 μg/mL for αᵥβ₅. Wells were blocked with 200 μL of a solution of 3% BSA in the same buffer (1 hour at room temperature) then rinsed 3 times with 200 μL binding buffer (50 mM TrisHCl, pH 7.5, 137 mM NaCl, 2.7 mM KCl, 1 mM MgCl₂, 2 mM CaCl₂, 0.1 mM MnCl₂, 0.1% BSA). Individual RNAs or RNA pools were denatured briefly at 93° C. in binding buffer without divalent cations or BSA, then serially diluted in the same buffer. 50 μL binding buffer containing 2×-concentrations of divalent cations and BSA were added to each well, followed by 50 μL RNA dilution. RNAs were allowed to incubate in the integrin-coated wells at 37° C. for 30-60 minutes. Unbound RNAs were removed by 3 rapid washes in binding buffer. To detect bound RNA, 100 μL of a 1:2500 dilution in binding buffer of streptavidin-alkaline phosphatase conjugate (Calbiochem) were incubated in each well for 30 minutes at room temperature, followed by three rapid washes, as above. 100 μL/well p-nitrophenyl phosphate (Sigma Chemical Co., St. Louis, Mo.) was added and incubated at room temperature for 30 minutes. Color development was monitored by absorbance at 405 nm.

Sequence of integrin alphaV beta3 (P06756 31-889, chain 1 of 3): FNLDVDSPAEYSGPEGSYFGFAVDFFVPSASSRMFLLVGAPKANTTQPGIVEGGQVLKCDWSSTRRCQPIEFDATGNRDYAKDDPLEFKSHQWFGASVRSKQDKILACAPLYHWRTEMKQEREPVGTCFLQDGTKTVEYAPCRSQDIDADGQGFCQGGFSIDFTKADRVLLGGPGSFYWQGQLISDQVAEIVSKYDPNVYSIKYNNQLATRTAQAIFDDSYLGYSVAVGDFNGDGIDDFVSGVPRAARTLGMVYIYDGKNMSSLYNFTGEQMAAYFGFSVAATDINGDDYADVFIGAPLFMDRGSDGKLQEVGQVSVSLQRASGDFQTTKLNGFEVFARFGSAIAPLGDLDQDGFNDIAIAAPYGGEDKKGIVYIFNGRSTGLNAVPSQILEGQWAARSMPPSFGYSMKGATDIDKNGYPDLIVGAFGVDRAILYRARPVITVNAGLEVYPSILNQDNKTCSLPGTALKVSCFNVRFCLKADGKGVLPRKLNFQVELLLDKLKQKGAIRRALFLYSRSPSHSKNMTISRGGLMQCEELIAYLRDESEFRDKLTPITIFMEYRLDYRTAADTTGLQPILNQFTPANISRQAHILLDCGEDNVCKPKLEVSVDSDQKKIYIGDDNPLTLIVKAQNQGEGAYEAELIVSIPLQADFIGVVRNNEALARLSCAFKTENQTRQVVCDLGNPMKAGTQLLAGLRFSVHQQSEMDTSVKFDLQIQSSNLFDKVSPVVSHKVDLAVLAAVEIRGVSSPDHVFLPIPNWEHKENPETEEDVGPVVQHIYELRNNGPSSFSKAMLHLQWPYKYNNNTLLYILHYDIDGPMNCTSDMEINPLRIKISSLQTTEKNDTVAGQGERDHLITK
Sequence of integrin alphaV beta3 (P06756 891-1048, chain 2 of 3): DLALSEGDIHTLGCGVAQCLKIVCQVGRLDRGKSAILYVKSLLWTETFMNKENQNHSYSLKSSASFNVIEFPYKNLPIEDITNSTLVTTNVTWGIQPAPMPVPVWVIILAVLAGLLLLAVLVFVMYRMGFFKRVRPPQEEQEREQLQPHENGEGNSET
Sequence of integrin alphaV beta3 (P05106 27-788, chain 3 of 3): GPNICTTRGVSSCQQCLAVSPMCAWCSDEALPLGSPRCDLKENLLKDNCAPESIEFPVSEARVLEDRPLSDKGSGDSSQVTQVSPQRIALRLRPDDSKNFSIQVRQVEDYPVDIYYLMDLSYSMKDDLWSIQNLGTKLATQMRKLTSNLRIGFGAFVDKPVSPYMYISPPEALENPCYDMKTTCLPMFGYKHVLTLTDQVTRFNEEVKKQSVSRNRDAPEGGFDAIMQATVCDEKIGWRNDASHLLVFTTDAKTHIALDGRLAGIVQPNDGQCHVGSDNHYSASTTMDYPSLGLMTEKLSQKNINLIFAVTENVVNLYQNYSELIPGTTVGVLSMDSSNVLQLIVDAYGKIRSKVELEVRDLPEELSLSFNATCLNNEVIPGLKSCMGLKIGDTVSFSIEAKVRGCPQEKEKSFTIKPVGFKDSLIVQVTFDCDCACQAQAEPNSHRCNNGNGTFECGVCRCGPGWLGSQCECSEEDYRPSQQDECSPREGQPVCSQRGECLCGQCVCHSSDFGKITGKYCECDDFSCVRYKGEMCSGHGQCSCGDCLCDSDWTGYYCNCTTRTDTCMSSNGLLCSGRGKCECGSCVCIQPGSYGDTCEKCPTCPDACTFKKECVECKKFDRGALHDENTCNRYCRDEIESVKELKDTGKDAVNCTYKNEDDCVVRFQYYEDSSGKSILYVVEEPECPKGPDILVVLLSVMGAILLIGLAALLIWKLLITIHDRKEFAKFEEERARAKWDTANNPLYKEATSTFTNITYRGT

Row | Binder | Kd [nM]
1 | 7.41 (ssRNA, 2'-F C and U) RNA: GGGAGACAAGAAUAAACGCUCAAGCGAGCCUAUUGUCUAAGAUGCACCAGGCCUGUUAAGCAUUUCGACAGGAGGCUCACAACAGGC | > 1000
2 | 15.18 (ssRNA, 2'-F C and U) RNA: GGGAGACAAGAAUAAACGCUCAAUUCAACGCUGUGAAGGGCUUAUAUGAGCGGAUUACCCUUCGACAGGAGGCUCACAACAGGC | 2
3 | 15.46 (17.20) (ssRNA, 2'-F C and U) RNA: GGGAGACAAGAAUAAACGCUCAAUUCGACGCUGUGAAGGGCUUAUAUGAGCGGAUUACCCUUCGACAGGAGGCUCACAACAGGC | 40
4 | 17.2 (ssRNA, 2'-F C and U) RNA: GGGAGACAAGAAUAAACGCUCAAUUCUACGCUGUGAAGGGCUUAUAUGAGCGGAUUACCCUUCGACAGGAGGCUCACAACAGGC | 2
5 | 17.11 (ssRNA, 2'-F C and U) RNA: GGGAGACAAGAAUAAACGCUCAAUUCUACGCUGUGAAGGGCUUAUAUGAGCGAAUUACCCUUCGACAGGAGGCUCACAACAGGC | 4
6 | 17.7 (ssRNA, 2'-F C and U) RNA: GGGAGACAAGAAUAAACGCUCAAUUCUACGCUGUGAAGGGCUUAUACGAGCGGAUUACCCUUCGACAGGAGGCUCACAACAGGC | 6
7 | 15.50 (17.3) (ssRNA, 2'-F C and U) RNA: GGGAGACAAGAAUAAACGCUCAAUUCGACGCUGUGAAGGGCUUAUACGAGCGGAUUACCCUUCGACAGGAGGCUCACAACAGGC | 30
8 | 15.3 (17.17) (ssRNA, 2'-F C and U) RNA: GGGAGACAAGAAUAAACGCUCAAUUCAACGUUGUCCAAGGGCUUAUAUGAGCGGAUUACCCUUCGACAGGAGGCUCACAACAGGC | 8
9 | 17.1 (ssRNA, 2'-F C and U) RNA: GGGAGACAAGAAUAAACGCUCAAUUCAACGCUGUCAAAGGGCUUAUAUAAGCGGAUUACCCUUCGACAGGAGGCUCACAACAGGC | 380
10 | 17.13 (ssRNA, 2'-F C and U) RNA: GGGAGACAAGAAUAAACGCUCAAUUCAACGCUGUCCAAGGGCUUAUAUGGGCGGAUUACCCUUCGACAGGAGGCUCACAACAGGC | 10
11 | 15.17 (ssRNA, 2'-F C and U) RNA: GGGAGACAAGAAUAAACGCUCAAUUCAACGUUGUCAAAGGGCUUAUACGGGCGGAUUACCCUUCGACAGGAGGCUCACAACAGGC | 4
12 | 15.10 (ssRNA, 2'-F C and U) RNA: GGGAGACAAGAAUAAACGCUCAAUUCAACGCUGUUCAAGGGCUUAUAUGAGCGGAUUACCCUUCGACAGGAGGCUCACAACAGGC | 20
13 | 15.8 (ssRNA, 2'-F C and U) RNA: GGGAGACAAGAAUAAACGCUCAAUUCGACGCUGUUGAAGGGCUUAUACGAGCGGAUUACCCUUCGACAGGAGGCUCACAACAGGC | 5
14 | 15.14 (ssRNA, 2'-F C and U) RNA: GGGAGACAAGAAUAAACGCUCAAUUCAACAUUGUCCAAGGGCUUAUAUGAGCGGAUUACCCUUCGACAGGAGGCUCACAACAGGC | 6
15 | 15.2 (ssRNA, 2'-F C and U) RNA: GGGAGACAAGAAUAAACGCUCAAUUCAACGUUGUCAAAGGGCUUAUAUGAGCGGAUUACCCUUCGACAGGAGGCUCACAACAGGC | 6
16 | 17.8 (ssRNA, 2'-F C and U) RNA: GGGAGACAAGAAUAAACGCUCAAUUCAACGUUGUCUAAGGGCUUAUAUGAGCGGAUUACCCUUCGACAGGAGGCUCACAACAGGC | 18
17 | 15.7 (ssRNA, 2'-F C and U) RNA: GGGAGACAAGAAUAAACGCUCAAUUCUACGAUGUCAAAGGGCUUAUAUGAGCGGAUUACCCUUCGACAGGAGGCUCACAACAGGC | 5

Row | Binder | Kd [nM]
18 | 15.13 (ssRNA, 2'-F C and U) RNA: GGGAGACAAGAAUAAACGCUCAAGCGGGAUUUUCCUGAUCAUCCCACUGAUUCGGGGCCUUACUUCGACAGGAGGCUCACAACAGGC | 790
19 | 15.5 (ssRNA, 2'-F C and U) RNA: GGGAGACAAGAAUAAACGCUCAAGCAUUCAAAAUUUGCGAGAACGAAUAGAAGUCCGAGAGCCUUCGACAGGAGGCUCACAACAGGC | 4000
20 | 7.66 (ssRNA, 2'-F C and U) RNA: GGGAGACAAGAAUAAACGCUCAAGUGAACCGAUAAGCGAAAGUAGUACCCCUGCUUGACUACUUUCGACAGGAGGCUCACAACAGGC | > 1000
21 | 17.5 (ssRNA, 2'-F C and U) RNA: GGGAGACAAGAAUAAACGCUCAAUUCGACGCUGUGAAGGGCUUAUAUGAGCGGAUACACCCUUCGACAGGAGGCUCACAACAGGC | 5
22 | 15.19 (ssRNA, 2'-F C and U) RNA: GGGAGACAAGAAUAAACGCUCAAUGUAGCCGCAUGUCGAGCAGCAAUUCCUGCCAUUGUAGGUUCGACAGGAGGCUCACAACAGGC | 770
23 | 7.13 (ssRNA, 2'-F C and U) RNA: GGGAGACAAGAAUAAACGCUCAAUGUAGUCGCAUGUCGAGCAGCAAUUCCUGCCAUUGUAGGUUCGACAGGAGGCUCACAACAGGC | > 1000
24 | 15.20 (ssRNA, 2'-F C and U) RNA: GGGAGACAAGAAUAAACGCUCAAUUCAACGCUGUCCAAGGGCUUAUAUGAGCGCAUUAUACCCUUCGACAGGAGGCUCACAACAGGC | 20
25 | 7.77 (ssRNA, 2'-F C and U) RNA: GGGAGACAAGAAUAAACGCUCAAUUCAACGAUGUUGAGGGGCUUAUAUGAGCGCAUUAUACCCUUCGACAGGAGGCUCACAACAGGC | 770
26 | 7.38 (ssRNA, 2'-F C and U) RNA: GGGAGACAAGAAUAAACGCUCAAUUCAACGCUGUCCAAGGGCUUAUAUGAGCGCGUUAUACCCUUCGACAGGAGGCUCACAACAGGC | 49
27 | 15.53 (ssRNA, 2'-F C and U) RNA: GGGAGACAAGAAUAAACGCUCAAUUCAACGCUGUCCUAGGGCUUAUAUGAGCGCAGGAUACCCUUCGACAGGAGGCUCACAACAGGC | 70
28 | 7.54 (ssRNA, 2'-F C and U) RNA: GGGAGACAAGAAUAAACGCUCAAUUCGACGCUGUUCAAGGGCUUAUAUGAGCGCGUUAUACCCUUCGACAGGAGGCUCACAACAGGC | 230
29 | 15.21 (ssRNA, 2'-F C and U) RNA: GGGAGACAAGAAUAAACGCUCAACGGUGAAGACCUCUAUUAACAACAUGACCUGCCUGCGUUGUUCGACAGGAGGCUCACAACAGGC | 200
30 | 15.43 (ssRNA, 2'-F C and U) RNA: GGGAGACAAGAAUAAACGCUCAACGCCGUUAUCACGACGUGCGUUCUGGGCGGUACUCGCGCAUUCGACAGGAGGCUCACAACAGGC | 45
31 | 7.5 (ssRNA, 2'-F C and U) RNA: GGGAGACAAGAAUAAACGCUCAAGGUAGUAAAUGGACUCCUGCCAUCCAAUACUAUCUCUGAGUUCGACAGGAGGCUCACAACAGGC | > 1000
32 | 15.4 (ssRNA, 2'-F C and U) RNA: GGGAGACAAGAAUAAACGCUCAAUGAUUUCAUGACUUAUGCCGCCGGCAUGACUUCAAUGACGUUCGACAGGAGGCUCACAACAGGC | 2000
33 | 15.34 (ssRNA, 2'-F C and U) RNA: GGGAGACAAGAAUAAACGCUCAAUCCCACCCUGCCUUGUCUGUUUGAUAGAGACACUGUCCUUUUCGACAGGAGGCUCACAACAGGC | 190
34 | 15.39 (ssRNA, 2'-F C and U) RNA: GGGAGACAAGAAUAAACGCUCAAUCAAUCUCGGACUAGACUAACGACCUUGGUUGACGCUCAUUCGACAGGAGGCUCACAACAGGC | 410
